Results on 94 variants are retold here after the supplement of paper PMC10567573.

The chains are these.
B1: SETD8 (parent)
chain: KKAQGKTQQNRKLTDFYPVRRSSR
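Further: lentivirally expressed fusions sorted by FACS into six bins by GFP to DsRed ratio, PSI derived from sequencing read proportions per bin multiplied by bin number.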

The variants in the data set derive from B1. The experiment in a line: protein stability index of a GFP-peptide fusion (GPS, HEK-293T) (PSI 1-6); higher = more stable. To be noted: c terminus: a fixed tail appended.
As for KKAQGKTQQNRKLTDFKPVRRSSR [Y17K], the protein stability index came to 4.5.

Take KKAQGKTQQNRKLTDFWPVRRSSR [Y17W]: the protein stability index came out at 1.41.

On to KKAQGKTQQNRKLTDFEPVRRSSR [Y17E], for which the protein stability index was found to be 3.39.

For the variant KKAQGKTQQNRKLTDFVPVRRSSR [Y17V], the protein stability index is 3.37.

On to KKAQGKTQQNRKLTDFLPVRRSSR [Y17L], for which the protein stability index was determined as 2.84.

Regarding KKAQGKTQQNRKLTDFQPVRRSSR [Y17Q], the protein stability index came to 4.09.

With KKAQGKTQQNRKLTDFMPVRRSSR [Y17M], the protein stability index was determined as 3.05.

With KKAQGKTQQNRKLTDFTPVRRSSR [Y17T], the protein stability index amounted to 2.06.

Regarding KKAQGKTQQNRKLTDFPPVRRSSR [Y17P], the protein stability index came out at 5.8.

In the case of KKAQGKTQQNRKLTDFNPVRRSSR [Y17N], the protein stability index amounted to 3.09.

With KKAQGKTQQNRKLTDFFPVRRSSR [Y17F], the protein stability index stood at 2.72.

As to KKAQGKTQQNRKLTDFDPVRRSSR [Y17D], the protein stability index is 4.52.

Regarding KKAQGKTQQNRKLTDFCPVRRSSR [Y17C], the protein stability index came out at 3.58.

Turning to KKAQGKTQQDRKLTDFYPVRRSSR [N10D], the protein stability index stood at 4.38.

On to KKAQGKTQQCRKLTDFYPVRRSSR [N10C], for which the protein stability index was determined as 3.63.

As for KKAQGKTQQLRKLTDFYPVRRSSR [N10L], the protein stability index is 2.39.

With KKAQGKTQQTRKLTDFYPVRRSSR [N10T], the protein stability index is 2.17.

As to KKAQGKTQQHRKLTDFYPVRRSSR [N10H], the protein stability index is 3.49.

For the variant KKAQGKTQQMRKLTDFYPVRRSSR [N10M], the protein stability index stood at 2.39.

As for KKAQGKTQQPRKLTDFYPVRRSSR [N10P], the protein stability index was 2.77.

For KKAQGKTQQIRKLTDFYPVRRSSR [N10I], the protein stability index is 3.4.

As to KKAQGKTQQERKLTDFYPVRRSSR [N10E], the protein stability index came to 2.67.

For KKAQGKTQQARKLTDFYPVRRSSR [N10A], the protein stability index was determined as 1.64.

With KKAQGKTQQSRKLTDFYPVRRSSR [N10S], the protein stability index came out at 2.35.

For KKAQGKTQQRRKLTDFYPVRRSSR [N10R], the protein stability index was determined as 2.74.

On to KKAQGKTQQGRKLTDFYPVRRSSR [N10G], for which the protein stability index was found to be 1.42.

As to KKAQGKTQQYRKLTDFYPVRRSSR [N10Y], the protein stability index worked out at 3.04.

Consider KKAQGKTQQNRKYTDFYPVRRSSR [L13Y], for which the protein stability index was 3.47.

Consider KKAQGKTQQNRKDTDFYPVRRSSR [L13D], for which the protein stability index was 4.69.

With KKAQGKTQQNRKKTDFYPVRRSSR [L13K], the protein stability index was found to be 5.04.

As to KKAQGKTQQNRKNTDFYPVRRSSR [L13N], the protein stability index amounted to 3.26.

Take KKAQGKTQQNRKWTDFYPVRRSSR [L13W]: the protein stability index amounted to 4.33.

For the variant KKAQGKTQQNRKCTDFYPVRRSSR [L13C], the protein stability index came out at 4.07.

In the case of KKAQGKTQQNRKPTDFYPVRRSSR [L13P], the protein stability index is 3.64.

For KKAQGKTQQNRKRTDFYPVRRSSR [L13R], the protein stability index is 5.53.

On to KKAQGKTQQNRKQTDFYPVRRSSR [L13Q], for which the protein stability index amounted to 3.79.

KKAQGKTQQNRKETDFYPVRRSSR [L13E]: the protein stability index was found to be 2.77.

For KKAQGKTQQNRKGTDFYPVRRSSR [L13G], the protein stability index was determined as 3.42.

With KKAQGKTQQNRKATDFYPVRRSSR [L13A], the protein stability index was 2.67.

Take KKAQGKTQQNRKSTDFYPVRRSSR [L13S]: the protein stability index stood at 2.79.

Consider KKAQGKTQQNRKVTDFYPVRRSSR [L13V], for which the protein stability index was found to be 2.79.

Regarding KKAQGKTQQNRKHTDFYPVRRSSR [L13H], the protein stability index came to 3.83.

Turning to KKAQGKTQQNRKTTDFYPVRRSSR [L13T], the protein stability index was found to be 3.51.

For the variant KKAQGKTQQNRKFTDFYPVRRSSR [L13F], the protein stability index was 3.52.

For KKAQGKHQQNRKLTDFYPVRRSSR [T7H], the protein stability index was determined as 2.88.

As to KKAQGKWQQNRKLTDFYPVRRSSR [T7W], the protein stability index worked out at 2.88.

As to KKAQGKLQQNRKLTDFYPVRRSSR [T7L], the protein stability index came to 3.08.

For the variant KKAQGKQQQNRKLTDFYPVRRSSR [T7Q], the protein stability index worked out at 2.66.

On to KKAQGKSQQNRKLTDFYPVRRSSR [T7S], for which the protein stability index turned out to be 2.26.

Turning to KKAQGKFQQNRKLTDFYPVRRSSR [T7F], the protein stability index came to 1.95.

Take KKAQGKNQQNRKLTDFYPVRRSSR [T7N]: the protein stability index was 3.33.

For KKAQGKRQQNRKLTDFYPVRRSSR [T7R], the protein stability index was found to be 3.38.

Consider KKAQGKDQQNRKLTDFYPVRRSSR [T7D], for which the protein stability index came out at 3.32.

Regarding KKAQGKMQQNRKLTDFYPVRRSSR [T7M], the protein stability index stood at 2.41.

As to KKAQGKEQQNRKLTDFYPVRRSSR [T7E], the protein stability index was 2.9.

Turning to KKAQGKTQQNRKLTDAYPVRRSSR [F16A], the protein stability index turned out to be 2.54.

For KKAQGKTQQNRKLTDHYPVRRSSR [F16H], the protein stability index worked out at 2.33.

KKAQGKTQQNRKLTDMYPVRRSSR [F16M]: the protein stability index was found to be 3.81.

Turning to KKAQGKTQQNRKLTDTYPVRRSSR [F16T], the protein stability index is 3.17.

Take KKAQGKTQQNRKLTDGYPVRRSSR [F16G]: the protein stability index is 2.74.

In the case of KKAQGKTQQNRKLTDEYPVRRSSR [F16E], the protein stability index stood at 4.51.

Consider KKAQGKTQQNRKLTDCYPVRRSSR [F16C], for which the protein stability index amounted to 2.71.

As to KKAQGKTQQNRKLTDQYPVRRSSR [F16Q], the protein stability index is 1.76.

Take KKAQGKTQQNRKLTDYYPVRRSSR [F16Y]: the protein stability index was determined as 3.29.

Regarding KKAQGKTQQNRKLTDPYPVRRSSR [F16P], the protein stability index came out at 3.07.

In the case of KKAQGKTQQNRKLTDIYPVRRSSR [F16I], the protein stability index was found to be 2.99.

As for KKAQGKTQQNRKLTDDYPVRRSSR [F16D], the protein stability index was determined as 2.58.

Regarding KKAQGKTQQNRKLTDSYPVRRSSR [F16S], the protein stability index stood at 3.07.

For the variant KKAQGKTQQNRKLTDNYPVRRSSR [F16N], the protein stability index amounted to 4.28.

As for KKAQGKTQQNRKLTDFYFVRRSSR [P18F], the protein stability index turned out to be 2.61.

KKAQGKTQQNRKLTDFYAVRRSSR [P18A]: the protein stability index is 3.16.

As to KKAQGKTQQNRKLTDFYIVRRSSR [P18I], the protein stability index is 2.66.

As for KKAQGKTQQNRKLTDFYCVRRSSR [P18C], the protein stability index came out at 2.47.

Take KKAQGKTQQNRKLTDFYDVRRSSR [P18D]: the protein stability index worked out at 3.38.

As to KKAQGKTRQNRKLTDFYPVRRSSR [Q8R], the protein stability index was 2.39.

For KKAQGKTEQNRKLTDFYPVRRSSR [Q8E], the protein stability index was 1.69.

As to KKAQGKTHQNRKLTDFYPVRRSSR [Q8H], the protein stability index is 2.59.

On to KKAQGKTWQNRKLTDFYPVRRSSR [Q8W], for which the protein stability index was determined as 3.29.

In the case of KKAQGKTLQNRKLTDFYPVRRSSR [Q8L], the protein stability index is 2.41.

As to KKAQGKTGQNRKLTDFYPVRRSSR [Q8G], the protein stability index came out at 2.28.

As to KKAQGKTVQNRKLTDFYPVRRSSR [Q8V], the protein stability index was determined as 3.2.

In the case of KKAQGKTSQNRKLTDFYPVRRSSR [Q8S], the protein stability index turned out to be 2.69.

For the variant KKAQGKTYQNRKLTDFYPVRRSSR [Q8Y], the protein stability index turned out to be 2.02.

On to KKAQGKTMQNRKLTDFYPVRRSSR [Q8M], for which the protein stability index amounted to 1.89.

Consider KKAQGKTAQNRKLTDFYPVRRSSR [Q8A], for which the protein stability index amounted to 2.45.

Regarding KKAQGKTNQNRKLTDFYPVRRSSR [Q8N], the protein stability index worked out at 2.89.

With KKAQGKTDQNRKLTDFYPVRRSSR [Q8D], the protein stability index came out at 3.23.

For the variant KKAQGKTPQNRKLTDFYPVRRSSR [Q8P], the protein stability index came out at 2.94.

Turning to KKAQGKTFQNRKLTDFYPVRRSSR [Q8F], the protein stability index came out at 3.67.

KKAQGKTCQNRKLTDFYPVRRSSR [Q8C]: the protein stability index was 3.34.

For KKAQGDTQQNRKLTDFYPVRRSSR [K6D], the protein stability index turned out to be 2.54.

In the case of KKAQGPTQQNRKLTDFYPVRRSSR [K6P], the protein stability index amounted to 2.06.

On to KKAQGVTQQNRKLTDFYPVRRSSR [K6V], for which the protein stability index stood at 2.25.

Turning to KKAQGATQQNRKLTDFYPVRRSSR [K6A], the protein stability index turned out to be 3.18.
